Assay results as given in patent publication US20110086089A1, “USE OF P27KIP1 FOR THE PREVENTION AND TREATMENT OF HEART FAILURE” (UNIVERSITY HEALTH NETWORK, priority 2008, published 2011).
Marks after values point to notes of the source that are not given here.

Columns and labels:
[1] = system: WT mice; assay: Chronic Ang II infusion for 14 days with daily TAT.protein injection, WT mice; assay type: in vivo; conditions: for FS / LVEDD / LVEF / LVESD / PWD: WT, echocardiography at 14 days
Source text: FIG. 5 is a series of graphs, blots and cell stainings showing CK2-alpha-prime is important for Ang II action in vivo. […] Transduction of recombinant active CK2-alpha-prime evokes cardiac hypertrophy in the absence of Ang II. (A) Heart-weight corrected for body-weight (left panel) and Masson-stain of myocardial cross sections (right panel). Mean±s.e.m., n=6-8. #P<0.01 vs sham saline. *P<0.01 vs sham saline. Scale bar, 2 mm. (B) Cell size analysis of adult cardiac myocytes isolated from 8-weeks-old mice. One hundred cells from three different mice were analyzed per group. Mean±s.e.m. #P<0.01 vs sham saline. *P<0.01 vs sham saline. **P<0.01 vs Ang II. (c) Determination of ANF/BNP mRNA levels by qRT-PCR. Mean±s.e.m., n=6-8. *P<0.05 vs sham saline. **P<0.05 vs Ang II. #P<0.05 vs sham saline. (D) Visualization of ectopic TAT-conjugated p27deltaPi by indirect immunofluorescence microscopy employing anti-His tag antibodies. Scale bar, 200 μm. (E) Left ventricular extracts (2-3 mg) were subjected to anti-CK2-alpha-prime immunocomplex kinase assays employing histone H1 substrate. Aliquots of kinase reactions were subjected to immunoblotting using antibodies as indicated on the left (top and middle panel). Levels of endogenously expressed or transduced proteins in total left ventricular heart tissue samples (60 μg) were analyzed by immunoblotting (bottom panel). Experiments to (E) were done twice with similar results.
To define whether CK2-alpha-prime -directed p27 turnover plays a role in vivo, the inventors chronically infused Ang II^72 and intraperitoneally injected recombinant TAT-conjugated CK2-alpha-prime and p27 variants in WT and p27^−/− mice (FIG. 9). […] These mice had normal LVEDD and LVESD when compared to Ang II-infused littermates (Table 3). […] CK2-alpha-prime activity and p27 destabilization were similar to their non-transduced Ang II-treated siblings (FIG. 5E).
(§1) Spontaneously beating cardiomyocytes from heart ventricles of neonatal rats were cultured and subjected to treatment with angiotensin II (Ang II). DMAT (2-dimethylamino-4,5,6,7-tetrabromo-1H-benzimidazol), DMSO, lactacystin and LLM were obtained from Calbiochem. Ang II was purchased from Sigma. Animal usage was in accordance with approved institutional animal care guidelines. Age-matched male WI C57BL/6 and p27^−/− mice were used in this study. For results shown in FIGS. 1 to 9: Ang II was chronically infused subcutaneously by osmotic pumps (model 2000, Alzet) at a dose of 1.4 μg/kg per minute for 14 days. TAT.proteins (10 mg/kg) were injected intraperitoneally once daily for 14 days. For results shown in FIGS. 10 to 12: Ang II was chronically infused subcutaneously by osmotic pumps (model 2000, Alzet) at a dose of 0.7 μg/kg per minute for 16 days. TAT.proteins (20 mg/kg) were injected intraperitoneally once daily for 8 days starting at day 8. Thoracic aortic banding (TAB) and pressure gradient measurements were performed as described^39.

[2] = system: p27 KO mice; assay: Chronic Ang II infusion for 14 days with daily TAT.protein injection, p27 KO mice; assay type: in vivo; conditions: for FS / LVEDD / LVEF / LVESD / PWD: p27 KO, echocardiography at 14 days
Procedure: (A) Heart-weight corrected for body-weight (left panel) and Masson-stain of myocardial cross sections (right panel). Mean±s.e.m., n=6-8. *P<0.01 vs sham saline. **P<0.01 vs Ang II. Scale bar, 2 mm. (B) Cell size analysis of adult cardiac myocytes isolated from 8-weeks-old mice. One hundred cells from three different mice were analyzed per group. Mean±s.e.m. *P<0.01 vs sham saline. **P<0.01 vs Ang II. (C) Determination of ANF/BNP mRNA levels by qRT-PCR. Mean±s.e.m., n=6-8. *P<0.01 vs sham saline. **P<0.01 vs Ang II. (D) CK2-alpha-prime-dependent kinase activity determined in whole left ventricular tissue samples. One typical result of two independent experiments is shown. (E, F) Ang II action induces apoptosis in p27^−/− mice. (E) Quantification of apoptotic cardiac myocytes (white arrowheads) by in situ TUNEL and GATA4 immunofluorescence histochemistry of left ventricular specimen. Mean±s.e.m., n=4. *P<0.01 vs sham saline. **P<0.05 vs sham saline. #P<0.01. (F) Determination of caspase 3 activity in total left ventricular heart tissue samples. Mean±s.e.m., n=4. *P<0.05 vs sham saline. #P<0.01. (G) Model for CK2-alpha-prime-dependent regulation of cardiac hypertrophy through phosphorylation of p27. Hypertrophic signals stimulate CK2-alpha-prime kinase that phosphorylates p27 at S83 and T187. Phosphorylation of p27 impairs its ability to bind to and inhibit […] activity. Subsequently, p27 is proteasomally degraded allowing hypertrophic growth to proceed.
Next, the inventors examined the effect of transduced proteins on cardiac hypertrophy in p27^−/− mice. Elimination of p27 gene function in these animals completely abrogated the ability of kd.CK2-alpha-prime to block cardiac hypertrophy (FIG. 6A-D). In contrast, hypertrophic responses to Ang II were abolished by p27deltaPi injections. Thus, reconstitution of p27 protein abundance in the myocardium of p27^−/− mice was accompanied by inhibition of Ang II action. Moreover, the inventors observed a marked increase in the number of TUNEL-positive cardiomyocyte nuclei in Ang II-infused p27^−/− mice (FIG. 6E,F) as compared to the WT controls. […] This was in direct contrast to the effect seen by ectopic kd.CK2-alpha-prime consistent with the inventors' previous work showing that CK2 is cardioprotective^73,74.
as §1

[3] = Ang infusion 1.4 μg/kg per minute 14 days, TAT.protein 10 mg/kg i.p. once daily
[4] = saline infusion, TAT.protein 10 mg/kg i.p. once daily 14 days

B1: kd.CK2-α′: catalytically-inactive kinase-dead CK2-alpha-prime, point mutation K69M; TAT-conjugated protein in mice, lentivirally expressed in cardiomyocytes (protein)
chain: MPGPAAGSRARVYAEVNSLRSREYWDYEAHVPSWGNQDDYQLVRKLGRGKYSEVFEAINITNNERVVVMILKPVKKKKIKREVKILENLRGGTNIIKLIDTVKDPVSKTPALVFEYINNTDFKQLYQILTDFDIRFYMYELLKALDYCHSKGIMHRDVKPHNVMIDHQQKKLRLIDWGLAEFYHPAQEYNVRVASRYFKGPELLVDYQMYDYSLDMWSLGCMLASMIFRREPFFHGQDNYDQLVRIAKVLGTEELYGYLKKYHIDLDPHFNDILGQHSRKRWENFIHSENRHLVSPEALDLLDKLLRYDHQQRLTAKEAMEHPYFYPVVKEQSQPCADNAVLSSGLTAAR
modifications: left off: small tags and cut ends
notes: TAT-conjugated protein in mice, lentivirally expressed in cardiomyocytes
[1]; Ang II-treated WT mice, TAT.proteins 10 mg/kg i.p. once daily 14 days
  cardiac hypertrophy to Ang II (heart/body weight ratio, myocyte area, ANF/BNP mRNA): abrogate cardiac hypertrophy
[1]; Ang II-treated WT mice, left ventricular extracts
  Ang II-induced CK2-alpha-prime activity (left ventricular immunocomplex kinase assay): abolished
[1]; [3]
  FS: 38 ± 2.6** %
  LVEDD: 3.8 ± 0.2** mm
  LVEF: 71 ± 2.3** %
  LVESD: 1.3 ± 0.1** mm
  PWD: 0.7 ± 0.2** mm
[1]; [4]
  LVEDD: 3.7 ± 0.2 mm
  LVEF: 71 ± 2.4%
  LVESD: 1.4 ± 0.2 mm
  PWD: 0.7 ± 0.1 mm
[1]; saline infusion, TAT.protein 10 mg/kg i.p. once daily 14 days, 8-weeks of age
  FS: 40 ± 1.5%
[2]; Ang II-infused p27−/− mice, TAT.proteins 10 mg/kg i.p. once daily
  cardiac hypertrophy / hypertrophic responses to Ang II: fails to inhibit cardiac hypertrophy
[2]; [3]
  FS: 52 ± 1.9* %
  LVEDD: 4.5 ± 0.1* mm
  LVEF: 83 ± 2.8* %
  LVESD: 2.1 ± 0.2* mm
  PWD: 1.2 ± 0.1* mm
[2]; [4]
  FS: 39 ± 2.6%
  LVEDD: 3.8 ± 0.2 mm
  LVEF: 69 ± 2.3%
  LVESD: 1.3 ± 0.1 mm
  PWD: 0.7 ± 0.2 mm
